# From US11649460B2, “DNA aptamers, method for inhibiting human galectin-1 and method of treating a mammal in need thereof” (priority 2020, dated 2023)
# Legend:
# [1] = test system: A-375 human malignant melanoma; test: SRB cell proliferation (cytotoxicity) assay, A-375
# From the text: (§1) The XLSTAT software was used to determine the IC50, TGI and LC50 values using the four-parameter logistic curve equation.
# [2] = test system: HCT 116 human colorectal carcinoma; test: SRB cell proliferation (cytotoxicity) assay, HCT 116
# From the text: as §1
# [3] = test system: MCF-7 human breast adenocarcinoma cell line; test: SRB cell proliferation (cytotoxicity) assay, MCF-7
# From the text: as §1
# alkylated galectin-1 = test: Thermofluor thermal shift assay (TSA), alkylated galectin-1; assay type: binding, human; conditions: 5 μM protein
# Protocol: In an attempt to screen among the selected aptamers that better interact with hGal1, differential scanning fluorimetry (Termofluor) was used to characterize their binding to its target. Among all the selected aptamers, SEQ ID NO.: 4 seemed to have a more intense effect on hGal1 thermoshift and so was chosen for further analysis. The selected aptamer had its interaction evaluated with native and alkylated galectin-1. […] The respective thermal displacements were evaluated as a function of an increasing concentration of SEQ ID NO.: 4 (FIG. 1).
# Thermofluor experiments were performed on an Mx3005 RT-PCR (Agilent Technologies) using the SYPRO® Orange dye (492/610 nm) (Invitrogen) as fluorescent probe. The purified (native and alkylated) protein samples were incubated for 30 min with increasing concentration of the molecules of interest, centrifuged, and submitted to the thermal denaturation assay, totalizing four distinct experiments. In a 96-well plate (Agilent Technologies) 20 μl of the reaction containing 5 μM of each protein in buffer PBS 1× and 5× SYPRO® Orange were heated from 25° C. to 95° C. at a rate of 1° C./min. The experimental result was processed as in the protocol previously described and the melting temperature was obtained using GraphPad Prism software (www.graphpad.com).
# [4] = test system: NHF human foreskin skin fibroblasts; test: in vitro
# From the text: as §1
# [5] = test system: HT-29 human colorectal adenocarcinoma; test: SRB cell proliferation (cytotoxicity) assay, HT-29
# From the text: as §1
# [6] = test system: SK-BR-3 human breast adenocarcinoma; test: SRB cell proliferation (cytotoxicity) assay, SK-BR-3
# From the text: as §1
# OVCAR-3 cell line = test: Synergism test with cisplatin, OVCAR-3; conditions: aptamer 12.5 μM associated with cisplatin 3 μM
# From the text: For the analysis of cell proliferation, the non-clonogenic method of sulforodamine B (SRB) was used, a protein dye that binds to the basic amino acid residues of cell proteins that were viable at the time of the fixation process. Therefore, the greater the amount of SRB bound per compartment, the less the antiproliferative activity of the item under study.
# [7] = test system: DU-145 human prostate carcinoma cell line; test: SRB cell proliferation (cytotoxicity) assay, DU-145
# From the text: as §1
# alkylated Gal1 = molecular target: T1, alkylated Gal1 (Homo sapiens, UniProt P09382); test: Hemagglutination inhibition assay, alkylated Gal1; assay type: cell-based; conditions: alkylated Gal1 5 μM
# T1 construct: 42; made in house; host or cells: E. coli strain M-15
# Protocol: FIG. 15 illustrates the hemagglutination test with constant protein concentration at 5 μM and titration of aptamers SEQ ID NO.: 4 and SEQ ID NO.: 9. (a) Titration with aptamer 4. The hemagglutination of native Gal1 was inhibited from the concentration of 10 μM of this compound.
# Hemagglutination assay was adopted to assess the capacity of SEQ ID NO.: 4 in inhibiting the lectin cross-linking aggregation of red blood cells (RBC), as previously described. Briefly, using a 96-well microplates appropriate amounts of 5 μM hGal1 were blended with 50 μL of aptamer in an increasing concentrations manner (0-40 μM) in PBS 1× buffer (pH 7.4). Following, 50 μL of 3% purified type B+ RBC in PBS. After 2 h of room temperature incubation, the plate was photographed and the hemagglutination area was estimated by area calculator Sketchandcalc™ and the results were expressed as relative agglutination.
# It was observed that treating hGal-1 with Iodoacetamide, which covalently binds the acetamide group in all solvent accessible cysteines sulfhydryl side chain, abolishes the anti-hemagglutinating activity of the aptamer. According to the proposed binding mode, this happens because Cysteines 2, 88 and 130 interact directly with the aptamer and adding the acetamide group to their side chains would disrupt specific aptamer-protein interactions (FIG. 13C).
# [8] = molecular target: T2, hGal1-induced hemagglutination of red blood cells (Homo sapiens, UniProt P09382); test: Hemagglutination inhibition assay, native hGal1; assay type: cell-based
# T2 construct: 42; made in house; host or cells: E. coli strain M-15
# How it was run: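 hGal1 (5 μM) was mixed with aptamer at 0-40 μM in PBS pH 7.4, then 3% type B+ human red blood cells were added and the mixture incubated 2 h at room temperature. Agglutination area was measured from plate photographs and expressed as relative agglutination.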
# T2 sequence (P09382 2-135): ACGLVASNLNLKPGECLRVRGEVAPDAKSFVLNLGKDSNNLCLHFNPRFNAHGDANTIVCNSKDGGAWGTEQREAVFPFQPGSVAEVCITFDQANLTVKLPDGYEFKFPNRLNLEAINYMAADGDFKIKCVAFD
# alkylated galectin-1, sequence (P09382 2-135): as above
# T1 sequence (P09382 2-135): as above
molecule,measurement,setting,value
"CTGACACAGCAGGTTGGTGCCAACTAACACCATAAGAATACCCCGCTCCAAATAAGCCCACACGTAAACCCGAGTCGAGCAATCTCGAAAT (nucleic acid, chemistry not given here, DNA aptamer that recognizes human galectin-1) DNA: CTGACACAGCAGGTTGGTGCCAACTAACACCATAAGAATACCCCGCTCCAAATAAGCCCACACGTAAACCCGAGTCGAGCAATCTCGAAAT",Relative cell viability (%) of test items,[1]; 0.781 µM,109.5%
same,Relative cell viability (%) of test items,[1]; 1.562 µM,100.6%
same,Relative cell viability (%) of test items,[1]; 3.125 µM,103.0%
same,Relative cell viability (%) of test items,[1]; 6.25 µM,97.3%
same,Relative cell viability (%) of test items,[1]; 12.5 µM,85.8%
same,Relative cell viability (%) of test items,[1]; 25 µM,35.7%
same,Relative cell viability (%) of test items,[1]; 50 µM,−69.0%
same,Relative cell viability (%) of test items,[1]; 100 µM,−72.3%
same,TGI: Concentration for total inhibition of cell growth,[1]; A-375,29.656 µM
same,IC50,"[1]; read-out: IC50: Concentration to inhibit 50% of cell growth, A-375",22.7 µM
same,CC50,"[1]; read-out: LC50: Concentration for 50% cell death, A-375",41.1 µM
same,Relative cell viability (%) of test items,[2]; 0.781 µM,103.6%
same,Relative cell viability (%) of test items,[2]; 1.562 µM,95.4%
same,Relative cell viability (%) of test items,[2]; 3.125 µM,85.5%
same,Relative cell viability (%) of test items,[2]; 6.25 µM,85.0%
same,Relative cell viability (%) of test items,[2]; 12.5 µM,57.1%
same,Relative cell viability (%) of test items,[2]; 25 µM,24.4%
same,Relative cell viability (%) of test items,[2]; 50 µM,3.6%
same,Relative cell viability (%) of test items,[2]; 100 µM,−70.2%
same,TGI: Concentration for total inhibition of cell growth,[2]; HCT 116,45.410 µM
same,IC50,"[2]; read-out: IC50: Concentration to inhibit 50% of cell growth, HCT 116",16.8 µM
same,CC50,"[2]; read-out: LC50: Concentration for 50% cell death, HCT 116",84.4 µM
same,Relative viability (%) of test items,[3]; 0.781 µM,110.4%
same,Relative viability (%) of test items,[3]; 1.562 µM,96.7%
same,Relative viability (%) of test items,[3]; 3.125 µM,95.8%
same,Relative viability (%) of test items,[3]; 6.25 µM,86.2%
same,Relative viability (%) of test items,[3]; 12.5 µM,72.7%
same,Relative viability (%) of test items,[3]; 25 µM,60.9%
same,Relative viability (%) of test items,[3]; 50 µM,43.4%
same,Relative viability (%) of test items,[3]; 100 µM,0.7%
same,TGI: Concentration for total inhibition of cell growth,[3]; MCF-7,>100 µM
same,IC50,"[3]; read-out: IC50: Concentration to inhibit 50% of cell growth, MCF-7",35.1 µM
same,CC50,"[3]; read-out: LC50: Concentration for 50% cell death, MCF-7",> 100 µM
same,temperature variation (Tm) of alkylated galectin-1,alkylated galectin-1,not significant
same,Relative viability (%) of test items,[4]; 0.781 µM,95.3%
same,Relative viability (%) of test items,[4]; 1.562 µM,94.2%
same,Relative viability (%) of test items,[4]; 3.125 µM,98.4%
same,Relative viability (%) of test items,[4]; 6.25 µM,100.7%
same,Relative viability (%) of test items,[4]; 12.5 µM,106.6%
same,Relative viability (%) of test items,[4]; 25 µM,73.4%
same,Relative viability (%) of test items,[4]; 50 µM,19.8%
same,Relative viability (%) of test items,[4]; 100 µM,−25.4%
same,TGI: Concentration for total inhibition of cell growth,[4]; NHF,63.101 µM
same,IC50,"[4]; read-out: IC50: Concentration to inhibit 50% of cell growth, NHF",35.6 µM
same,Relative cell viability (%) of test items,[5]; 0.781 µM,93.5%
same,Relative cell viability (%) of test items,[5]; 1.562 µM,90.7%
same,Relative cell viability (%) of test items,[5]; 3.125 µM,88.6%
same,Relative cell viability (%) of test items,[5]; 6.25 µM,74.6%
same,Relative cell viability (%) of test items,[5]; 12.5 µM,47.4%
same,Relative cell viability (%) of test items,[5]; 25 µM,5.8%
same,Relative cell viability (%) of test items,[5]; 50 µM,−84.0%
same,Relative cell viability (%) of test items,[5]; 100 µM,−61.1%
same,TGI: Concentration for total inhibition of cell growth,[5]; HT-29,22.932 µM
same,IC50,"[5]; read-out: IC50: Concentration to inhibit 50% of cell growth, HT-29",13.5 µM
same,CC50,"[5]; read-out: LC50: Concentration for 50% cell death, HT-29",40.9 µM
same,Relative cell viability (%) of test items,[6]; 0.781 µM,101.9%
same,Relative cell viability (%) of test items,[6]; 1.562 µM,103.4%
same,Relative cell viability (%) of test items,[6]; 3.125 µM,98.6%
same,Relative cell viability (%) of test items,[6]; 6.25 µM,106.2%
same,Relative cell viability (%) of test items,[6]; 12.5 µM,96.1%
same,Relative cell viability (%) of test items,[6]; 25 µM,47.0%
same,Relative cell viability (%) of test items,[6]; 50 µM,−34.6%
same,Relative cell viability (%) of test items,[6]; 100 µM,−86.3%
same,TGI: Concentration for total inhibition of cell growth,[6]; SK-BR-3,37.515 µM
same,IC50,"[6]; read-out: IC50: Concentration to inhibit 50% of cell growth, SK-BR-3",25 µM
same,CC50,"[6]; read-out: LC50: Concentration for 50% cell death, SK-BR-3",56.9 µM
same,decrease of cell viability versus cisplatin alone,OVCAR-3 cell line,~60%
same,Relative viability (%) of test items,[7]; 0.781 µM,109.3%
same,Relative viability (%) of test items,[7]; 1.562 µM,100.6%
same,Relative viability (%) of test items,[7]; 3.125 µM,104.7%
same,Relative viability (%) of test items,[7]; 6.25 µM,109.6%
same,Relative viability (%) of test items,[7]; 12.5 µM,104.3%
same,Relative viability (%) of test items,[7]; 25 µM,88.5%
same,Relative viability (%) of test items,[7]; 50 µM,68.4%
same,Relative viability (%) of test items,[7]; 100 µM,36.0%
same,IC50,"[7]; read-out: IC50: Concentration to inhibit 50% of cell growth, DU-145",72.6 µM
same,effect on hemagglutination by alkylated Gal1,alkylated Gal1,no observed effect
same,inhibition effect over RBC agglutination,"[8]; 10 μM aptamer, 5 μM hGal1",approximately 75%
same,inhibitory effect on galectin-induced hemagglutination,[8]; native Gal1 5 μM,better effect
same,concentration from which hemagglutination was inhibited,"[8]; native Gal1 5 μM, listed as aptamer 4",10 µM
